Reference: patent US20160272690A1 (BAO KANG BIOMEDICAL HEALTHCARE, published 2016)
Bridges are numbered along the chain shown (N, C = ends). Where no end group is shown, it is not given here. [ ]: non-standard residue; d: D form. hCys = N[C@@H](CCS)C(=O)O

T1: TEAD
T1 chain: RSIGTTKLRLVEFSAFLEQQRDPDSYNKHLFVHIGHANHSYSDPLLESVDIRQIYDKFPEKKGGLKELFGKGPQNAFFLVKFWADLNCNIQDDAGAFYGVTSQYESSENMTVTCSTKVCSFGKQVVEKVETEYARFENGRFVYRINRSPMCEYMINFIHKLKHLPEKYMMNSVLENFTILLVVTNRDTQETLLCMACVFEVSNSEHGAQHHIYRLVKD


Molecular target: T1, TEAD
Test: IC50 for TEAD binding (TR-FRET test)

Row | IC50 | Binder
1 | 28 nM | VPMCLRKLPESFCHPPE (disulfide 4-13) [polypeptide represented by SEQ ID NO.: 8]
2 | 25 nM | VPM[hCys]LRKLPCSFCDPPE (disulfide 4-13) [polypeptide represented by SEQ ID NO.: 9]
